From publication PMC3565064 (Analytical biochemistry, 2012)
Ends that are not written are not given here. * marks the point of attachment. Fc = ferrocene monocarboxylic acid coupled as acyl group on the N-terminus, O=C([c-]1cccc1)*.[Fe+2].c1cc[cH-]c1

Biological target: amyloid beta peptide Aβ(1–42) (UniProt P05067 672-713)
Assay: differential pulse voltammetry of the ferrocene tag

For Fc-KLVFFKKKKKK [ferrocene-tagged β-sheet breaker peptide Fc-KLVFFK6], the “t1/2 at [Fc-KLVFFK6]:[Aβ(1–42)] 1:0.25” value was 1.29 h, the “t1/2 at [Fc-KLVFFK6]:[Aβ(1–42)] 1:0.5” value was 1.35 h and the “t1/2 at [Fc-KLVFFK6]:[Aβ(1–42)] 1:1” value was 1.53 h. The “t1/2 at [Fc-KLVFFK6]:[Aβ(1–42)] 1:2” value was 1.13 h and the “t1/2 at [Fc-KLVFFK6]:[Aβ(1–42)] 1:4” value was 1.02 h.
